We go through six molecules from patent publication US20040258682A1.

The target in experiment [1] is CD22, the LL2 antigen on the surface of Raji B-lymphoma cells (UniProt P20273). The experiment is described as follows: Raji cell binding assay.
The target is the same in experiment [2]. Put plainly: cell-based or functional assay.
For experiment [3] the target is unchanged. Put plainly: cell surface binding assay, calculated from ID50 values.
The target of experiment [4] is WN, LL2 anti-idiotype antibody. The experiment is described as follows: WN competitive blocking assay, F(ab′)2 competing with mLL2. Further details: unit not given beside the values.
Experiment [5] deals with WN, LL2 anti-idiotype antibody. Put plainly: WN competitive blocking assay, from ID50 against unmodified control F(ab′)2.

In experiment [1], “DOX-LL2 (doxorubicin-dextran-LL2 F(ab′)2 conjugate of Example 9)” registered an immunoreactivity (% of control values) of 80%.
For “cLL2Q (chimeric LL2 with the NVT to QVT mutation in VK FR1) (antibody)”, in experiment [2], the rate of antibody internalization (Ke) by Raji cells turned out to be 0.122.
In the case of mLL2 F(ab′)2 fragment, in experiment [3], the Immunoreactivity (%), cell binding was 100%.
Same read-out and setting: the same measure for “mLL2 F(ab′)2 fragment conjugated with dextran-DOX at the VK-appended carbohydrate”: 41.9%.
On to murine LL2 monoclonal antibody, for which the rate of antibody internalization (Ke) by Raji cells in experiment [2] came to 0.107.

B1: hLL2 F(ab′)2 fragment (protein, INN chains, looked up)
VH: QVQLVQSGAEVKKPGSSVKVSCKASGYTFTSYWLHWVRQAPGQGLEWIGYINPRNDYTEYNQNFKDKATITADESTNTAYMELSSLRSEDTAFYFCARRDITTFYWGQGTTVTVSS
VL: DIQLTQSPSSLSASVGDRVTMSCKSSQSVLYSANHKNYLAWYQQKPGKAPKLLIYWASTRESGVPSRFSGSGSGTDFTFTISSLQPEDIATYYCHQYLSSWTFGGGTKLEIK
modifications: F(ab')2
Regarding B1, the ID50 in experiment [4] is 0.384. In experiment [5], this molecule gave an Immunoreactivity, % of hLL2 of 100%.
